B1: Antibody 6GL IgG2 (antibody, V domains shown)
VH: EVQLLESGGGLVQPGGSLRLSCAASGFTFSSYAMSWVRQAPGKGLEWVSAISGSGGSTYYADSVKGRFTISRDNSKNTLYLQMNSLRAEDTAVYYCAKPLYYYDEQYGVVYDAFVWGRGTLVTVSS
VL: QSVLTQPPSVSGAPGQRVTISCTGSSSNIGAGYDVHWYQQLPGTAPKLLIYGDTHRPSGVPDRFSGSKSGTSASLAITGLQAEDEADYYCQSYDTVRLHHVFGGGTKLTVL
notes: Germlined IgG2, lambda light chain; also called Antibody 6 IgG2; 28PL GL
B2: Antibody 10GL IgG2 (antibody, V domains shown)
VH: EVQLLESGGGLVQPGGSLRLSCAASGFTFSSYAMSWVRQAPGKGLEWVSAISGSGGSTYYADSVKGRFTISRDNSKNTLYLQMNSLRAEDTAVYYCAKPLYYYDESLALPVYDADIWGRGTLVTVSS
VL: QSVLTQPPSVSGAPGQRVTISCTGSSSNIGAGYDVHWYQQLPGTAPKLLIYGDTHRPSGVPDRFSGSKSGTSASLAITGLQAEDEADYYCQSYDTRADDAHFGGGTKLTVL
notes: Germlined IgG2, lambda light chain
B3: Antibody 8GL IgG2 (antibody, V domains shown)
VH: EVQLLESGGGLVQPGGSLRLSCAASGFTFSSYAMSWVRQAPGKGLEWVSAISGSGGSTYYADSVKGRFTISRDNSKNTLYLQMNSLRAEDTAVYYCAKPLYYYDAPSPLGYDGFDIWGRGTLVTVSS
VL: QSVLTQPPSVSGAPGQRVTISCTGSSSNIGAGYDVHWYQQLPGTAPKLLIYGDTHRPSGVPDRFSGSKSGTSASLAITGLQAEDEADYYCQSYDTHLVAHVFGGGTKLTVL
notes: as for B2

Legend:
[1] = biological target: T1, cynomolgus IL-1R1, endogenous on CYNOM-K1 cells (cynomolgus monkey, UniProt A0A7N9CMI5 18-569); test: cell-based or functional assay
T1 sequence: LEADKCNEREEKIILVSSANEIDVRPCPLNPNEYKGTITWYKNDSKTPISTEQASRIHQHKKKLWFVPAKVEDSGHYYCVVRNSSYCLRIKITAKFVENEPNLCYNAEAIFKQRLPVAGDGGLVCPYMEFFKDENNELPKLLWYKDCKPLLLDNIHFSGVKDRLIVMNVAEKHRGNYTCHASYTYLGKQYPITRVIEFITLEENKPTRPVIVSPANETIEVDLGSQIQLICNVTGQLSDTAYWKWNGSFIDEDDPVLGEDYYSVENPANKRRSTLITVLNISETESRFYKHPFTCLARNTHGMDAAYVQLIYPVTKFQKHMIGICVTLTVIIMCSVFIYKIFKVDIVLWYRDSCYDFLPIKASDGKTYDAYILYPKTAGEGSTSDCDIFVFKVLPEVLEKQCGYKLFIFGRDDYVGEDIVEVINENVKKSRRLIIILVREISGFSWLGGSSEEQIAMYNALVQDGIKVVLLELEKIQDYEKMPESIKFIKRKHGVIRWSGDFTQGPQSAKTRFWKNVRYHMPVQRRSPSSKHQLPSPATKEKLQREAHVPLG

[2] = biological target: T2, recombinant human IL-1 R4 (ST2)/Fc (human, UniProt Q01638-2 19-328, limits assumed); test: DELFIA epitope competition; no inhibition of biotinylated huIL-1RFc binding to the adsorbed IgG
T2 construct: Bought; not shown: Fc of the bought fusion protein, not described
T2 sequence (looked up): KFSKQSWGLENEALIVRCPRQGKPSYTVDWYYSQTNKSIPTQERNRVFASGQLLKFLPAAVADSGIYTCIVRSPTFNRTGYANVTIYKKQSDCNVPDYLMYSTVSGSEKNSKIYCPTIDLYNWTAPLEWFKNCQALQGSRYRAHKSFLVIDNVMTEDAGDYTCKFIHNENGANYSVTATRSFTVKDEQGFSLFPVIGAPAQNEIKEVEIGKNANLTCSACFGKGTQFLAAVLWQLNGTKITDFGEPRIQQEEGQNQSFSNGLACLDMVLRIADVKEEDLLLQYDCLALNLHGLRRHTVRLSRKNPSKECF
Method: (§1) Titrations of non biotinylated purified human recombinant IL1sRII (R&D Systems), human recombinant IL-1R6/IL1 R rpt/Fc (R&D Systems), human recombinant IL18R alpha/IL-1 R5/Fc (R&D systems) and recombinant human IL-1 R4 (ST2)/Fc (R&D systems) were tested in each assay to establish the potency for each structurally related family member, as measured by IC₅₀ values in the assay.
(§2) Purified IgG were adsorbed onto 96-well Maxisorp microtitre plates (Nunc) in PBS at a concentration which gave a significant signal when biotinylated human HIS IL1RFc was added at approximately its estimated KD for that particular IgG. Excess IgG was washed away with PBS-Tween (0.1% v/v) and the wells were blocked with non-fat dried milk in PBS (3% w/v) for 1 h. […] Non-biotinylated human HIS IL1RFc was included as a positive control. 25 μl of this dilution series was added to the blocked IgG assay plate.
(§3) 25 μl of 1.4 nM biotinylated human HIS IL1RFc was added to the assay plate. The plate was then sealed and incubated at room temperature for 2 h. Unbound antigen was removed by washing with PBS-Tween (0.1% v/v), while the remaining biotinylated human IL1RFc was detected by streptavidin-Europium3+ conjugate (DELFIA® detection, PerkinElmer). Time-resolved fluorescence was measured at 620 nm on an EnVision plate reader (PerkinElmer). Fluorescence data was plotted as europium counts. IC₅₀ values were determined using GraphPad Prism software by curve fitting using a four-parameter logistic equation (Equation 3).

[3] = biological target: T3, human recombinant IL18R alpha/IL-1 R5/Fc (human, UniProt Q13478 19-329, limits assumed); test: as above
T3 construct: Bought; also called IL18R alpha Fc; not shown: Fc of the bought fusion protein, not described
T3 sequence (looked up): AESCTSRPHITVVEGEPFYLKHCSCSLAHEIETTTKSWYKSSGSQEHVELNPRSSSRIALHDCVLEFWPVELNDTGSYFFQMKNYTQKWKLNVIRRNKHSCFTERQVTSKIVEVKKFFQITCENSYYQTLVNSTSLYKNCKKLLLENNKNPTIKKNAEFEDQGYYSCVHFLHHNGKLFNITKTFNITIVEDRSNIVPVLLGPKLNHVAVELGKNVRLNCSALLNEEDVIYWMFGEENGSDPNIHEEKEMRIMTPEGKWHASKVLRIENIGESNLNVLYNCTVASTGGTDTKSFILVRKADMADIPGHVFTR
Method: as §1, §2, §3

[4] = biological target: T4, human IL-1R1, endogenous on human cells (HeLa cells; whole blood) (human, UniProt P14778 18-569); test: cell-based or functional assay
T4 sequence (looked up): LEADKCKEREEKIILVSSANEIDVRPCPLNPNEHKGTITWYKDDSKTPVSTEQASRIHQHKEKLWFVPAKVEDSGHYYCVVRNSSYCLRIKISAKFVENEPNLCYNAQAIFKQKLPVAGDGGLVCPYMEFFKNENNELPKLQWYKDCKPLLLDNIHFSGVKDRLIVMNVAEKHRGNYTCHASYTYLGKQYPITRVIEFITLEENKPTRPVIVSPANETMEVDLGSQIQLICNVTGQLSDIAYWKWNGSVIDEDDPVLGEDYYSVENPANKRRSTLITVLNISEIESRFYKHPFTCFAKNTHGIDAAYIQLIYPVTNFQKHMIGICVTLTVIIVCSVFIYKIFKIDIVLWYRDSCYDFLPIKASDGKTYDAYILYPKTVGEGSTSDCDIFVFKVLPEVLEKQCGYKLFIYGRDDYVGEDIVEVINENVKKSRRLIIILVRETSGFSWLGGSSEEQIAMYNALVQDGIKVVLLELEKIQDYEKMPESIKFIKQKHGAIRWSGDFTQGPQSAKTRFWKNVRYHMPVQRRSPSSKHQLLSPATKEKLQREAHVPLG

| Binder | IC50, inhibition of IL-1β induced IL-8 release from CYNOM-K1 cells, experiment 1 [1] [nM] | IC50, inhibition of IL-1β induced IL-8 release from CYNOM-K1 cells, experiment 2 [1] [nM] | binding result [2] | binding result [3] | IC50, inhibition of IL-1 alpha induced IL-8 release in HeLa cells (GL IgG2) [4] [nM] | IC50, inhibition of IL-1 beta induced IL-8 release in HeLa cells (GL IgG2) [4] [nM] |
| --- | --- | --- | --- | --- | --- | --- |
| B1 | 0.8 | 0.6 | no binding | no binding | 0.0031 | 0.0119 |
| B2 | 0.9 | 0.7 | no binding | no binding | 0.0138 | 0.0242 |
| B3 | 4.2 | 2.5 | no binding | no binding | 0.197 | 0.0419 |

Reference: US20100221257A1 (AstraZeneca / MedImmune, published 2010)
